Reference: patent US20170015748A1 (NATIONAL RESEARCH COUNCIL OF CANADA, published 2017)

B1: IGF1R-5 VHH (VHH)
VHH: QVKLEESGGGLVQAGGSLRLSCAASGRTIDNYAMAWSRQAPGKDREFVATIDWGDGGARYANSVKGRFTISRDNAKGTMYLQMNNLEPEDTAVYSCAMARQSRVNLDVARYDYWGQGTQVTVSS
notes: Llama VHH expressed in E. coli TG1 from vector pSJF2H and purified by IMAC; Monomeric by SEC; also called anti-IGF1R VHH IGF1R-5; wild-type IGF1R-5
B2: IGF1R-5_H3 (VHH)
VHH: QVQLVESGGGLVQPGGSLRLSCAASGRTIDNYAMAWSRQAPGKGLEFVATIDWGDGGTRYANSVKGRFTISRDNSKNTMYLQMNSLRAEDTAVYYCAMARQSRVNLDVARYDYWGQGTLVTVSS
notes: Humanized variant of IGF1R-5, expressed from pSJF2H in E. coli
B3: IGF1R-5_H2 (VHH)
VHH: QVQLVESGGGLVQPGGSLRLSCAASGRTIDNYAMAWVRQAPGKGLEWVATIDWGDGGTRYANSVKGRFTISRDNSKNTMYLQMNSLRAEDTAVYYCAMARQSRVNLDVARYDYWGQGTLVTVSS
notes: Humanized variant of IGF1R-5, expressed from pSJF2H in E. coli; also called IGF1R H2
B4: IGF1R-5_H5 (VHH)
VHH: QVQLVESGGGLVQPGGSLRLSCAASGRTIDNYAMAWSRQAPGKDREFVATIDWGDGGTRYANSVKGRFTISRDNSKGTMYLQMNSLRAEDTAVYSCAMARQSRVNLDVARYDYWGQGTLVTVSS
notes: as for B2
B5: IGF1R-5_H6 (VHH)
VHH: EVQLVESGGGLVQPGGSLRLSCAASGRTIDNYAMAWSRQAPGKDREFVSTIDWGDGGTRYANSVKGRFTISRDNSKNTLYLQMNSLRAEDTAVYYCAMARQSRVNLDVARYDYWGQGTLVTVSS
notes: as for B2
B6: IGF1R-5_H1 (VHH)
VHH: EVQLVESGGGLVQPGGSLRLSCAASGRTIDNYAMAWVRQAPGKGLEWVSTIDWGDGGTRYANSVKGRFTISRDNSKNTLYLQMNSLRAEDTAVYYCAMARQSRVNLDVARYDYWGQGTLVTVSS
notes: as for B2

The binders below were run against T1, recombinant extracellular portion of human IGF1R (IGF1R^933-His fragment) (human, UniProt P08069 31-933) (assay: SPR (BIACORE 3000), human IGF1R immobilized on CM5, VHH injected, 1:1 model, 25 C).
T1 construct: It holds a furin site (RKRR) between the alpha and beta subunits, so the protein may be cleaved into two disulphide-linked chains; also called h-IGF1R; recombinant human IGF1R; not shown: His tag from vector pCDN4/myc-His
T1 sequence (P08069 31-933): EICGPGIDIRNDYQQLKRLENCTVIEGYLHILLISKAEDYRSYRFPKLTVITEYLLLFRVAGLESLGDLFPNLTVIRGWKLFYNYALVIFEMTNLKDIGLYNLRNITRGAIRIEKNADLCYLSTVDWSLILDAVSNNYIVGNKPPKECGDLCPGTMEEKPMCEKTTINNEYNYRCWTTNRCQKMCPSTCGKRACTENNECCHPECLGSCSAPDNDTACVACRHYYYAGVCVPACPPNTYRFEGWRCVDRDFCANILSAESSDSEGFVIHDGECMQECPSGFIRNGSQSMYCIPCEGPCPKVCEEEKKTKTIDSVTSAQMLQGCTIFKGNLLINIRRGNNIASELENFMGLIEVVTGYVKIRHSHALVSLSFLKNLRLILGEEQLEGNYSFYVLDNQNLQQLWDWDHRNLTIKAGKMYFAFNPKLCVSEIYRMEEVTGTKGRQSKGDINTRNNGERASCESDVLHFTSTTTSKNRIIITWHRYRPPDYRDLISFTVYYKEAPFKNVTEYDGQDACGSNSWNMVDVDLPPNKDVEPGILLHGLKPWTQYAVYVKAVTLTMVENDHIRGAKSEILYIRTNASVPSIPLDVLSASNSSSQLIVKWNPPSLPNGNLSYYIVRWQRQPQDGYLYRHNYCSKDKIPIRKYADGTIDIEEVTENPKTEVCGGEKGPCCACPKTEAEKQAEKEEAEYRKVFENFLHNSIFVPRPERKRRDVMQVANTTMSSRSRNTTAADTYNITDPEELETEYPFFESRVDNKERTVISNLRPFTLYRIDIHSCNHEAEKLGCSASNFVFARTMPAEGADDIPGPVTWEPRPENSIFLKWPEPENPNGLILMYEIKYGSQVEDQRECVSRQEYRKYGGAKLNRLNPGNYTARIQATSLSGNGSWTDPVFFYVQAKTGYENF
Experimental: Approximately 3000 Resonance Units (RU) of recombinant human IGF1R (R&D Systems) were immobilized on a Sensor chip CM5. Immobilization was carried out at a concentration of 10 μg/ml in 10 mM acetate at pH4.0 using the amine coupling kit supplied by the manufacturer. The remaining binding sites were blocked with 1M ethanolamine pH 8.5. An ethanolamine blocked surface was used as a reference surface. For the binding studies, analyses were carried out at 25° C. in 10 mM HEPES, pH7.4 containing 150 mM NaCl, 3 mM EDTA and 0.005% surfactant P20 (Polyoxyethylenesorbitan; GE Healthcare). […] Surfaces were regenerated with 10 mM glycine pH 2.0 with a contact time of 24 seconds. Data were analyzed with BIAevaluation 4.1 software (GE Healthcare).
Work on B1 yielded a Kd of 0.6 nM, a koff of 0.00034 s⁻¹ and a kon of 530000 M⁻¹ s⁻¹.
Binder B2 has a Kd of 0.8 nM, a koff of 0.00041 s⁻¹ and a kon of 520000 M⁻¹ s⁻¹.
For B3, the Kd was 7.5 nM, the koff was 0.0029 s⁻¹ and the kon was 380000 M⁻¹ s⁻¹.
B4 showed a Kd of 1.6 nM, a koff of 0.0008 s⁻¹ and a kon of 500000 M⁻¹ s⁻¹.
With B5 the Kd was 1.7 nM, the koff was 0.00072 s⁻¹ and the kon was 430000 M⁻¹ s⁻¹.
In the case of B6, the Kd is reported as 11 nM, the koff is reported as 0.0043 s⁻¹ and the kon is reported as 390000 M⁻¹ s⁻¹.
